Experimental data taken from patent US20080050396A1 (SURVAC, published 2008).

Biological target: HLA-A2 (human)
Assay: assembly assay: peptide stabilisation of HLA-A2 from T2 lysate, W6/32 immunoprecipitation

Row | C50 | Binder
1 | 1 µM | SLALVGACI (The end of the range is worked out from the printed start and the peptide length) [bcl222]
2 | 1 µM | LLSLALVGA (The end of the range is worked out from the printed start and the peptide length) [bcl220]
3 | 1 µM | ALSPVPPVV (The end of the range is worked out from the printed start and the peptide length) [Bcl85]
4 | 2 µM | NIALWMTEYL (The end of the range is worked out from the printed start and the peptide length) [bcl172]
5 | 3 µM | WLSLKTLLSL (The end of the range is worked out from the printed start and the peptide length) [bcl214]

The remaining lines, values behind:

Row | Binder | C50
6 | ALVGACITL (The end of the range is worked out from the printed start and the peptide length) [Bcl224] | 0.7 µM
7 | PLFDFSWLSL (The end of the range is worked out from the printed start and the peptide length) [bcl208] | 7 µM
8 | FTARGRFATV (The end of the range is worked out from the printed start and the peptide length) [bcl124] | 1 µM
9 | AAAGPALSPV (The end of the range is worked out from the printed start and the peptide length) [bcl80] | 36 µM
10 | KTLLSLALV (The end of the range is worked out from the printed start and the peptide length) [bcl218] | 2 µM
11 | YLNRHLHTWI (The end of the range is worked out from the printed start and the peptide length) [bcl180] | 15 µM
